In article PMC11268888, “Glycan-shielded homodimer structure and dynamical features of the canine distemper virus hemagglutinin relevant for viral entry and efficient vaccination” (eLife, 2024) one finds Ka and Kd data, which are given here for one molecule.

Assay [1] deals with T1, ectodomain of dog Nectin-4 (residues 1-332) (dog).
T1 construct: also called dNectin-4; PVRL4
Briefly: SPR; […]; HBS-EP (10 mM HEPES pH 7.4, 150 mM NaCl, 3 mM EDTA, 0.005% Surfactant P20); […]. To be noted: both partners purified. (In SPR one partner is held on a chip, and binding of the other changes the refractive index at the surface.)

Assay [2] addresses T2, ectodomain of human Nectin-4 (residues 1-333) (human, UniProt Q96NY8 32-333).
T2 construct: also called hNectin-4; PVRL4
T2 sequence (looked up): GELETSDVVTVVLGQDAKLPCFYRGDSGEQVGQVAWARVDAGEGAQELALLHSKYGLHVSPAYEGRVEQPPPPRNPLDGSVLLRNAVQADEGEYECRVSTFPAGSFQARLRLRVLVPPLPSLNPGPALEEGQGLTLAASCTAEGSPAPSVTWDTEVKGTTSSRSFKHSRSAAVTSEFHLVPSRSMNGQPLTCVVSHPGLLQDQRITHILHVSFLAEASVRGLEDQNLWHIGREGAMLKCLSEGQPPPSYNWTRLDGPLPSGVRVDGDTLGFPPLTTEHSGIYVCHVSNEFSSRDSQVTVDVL
Described as above. To be noted: both partners purified.

As usually defined, the Kd is the constant that tells how readily two partners part at equilibrium. Higher therefore signals a looser complex.

B1: MeV-H (measles virus hemagglutinin), wild-type strain (domain or fragment)
chain: DYDQYCADVAAEELMNALVNSTLLEARATNQFLAVSKGNCSGPTTIRGQFSNMSLSLLDLYLSRGYNVSSIVTMTSQGMYGGTYLVGKPNLSSKGSELSQLSMHRVFEVGVIRNPGLGAPVFHMTNYFEQPVSNDFSNCMVALGELKFAALCHREDSITIPYQGSGKGVSFQLVKLGVWKSPTDMRSWVPLSTDDPVIDRLYLSSHRGVIADNQAKWAVPTTRTDDKLRMETCFQQACKGKNQALCENPEWAPLKDNRIPSYGVLSVNLSLTVELKIKIASGFGPLITHGSGMDLYKTNHNNVYWLTIPPMKNLALGVINTLEWIPRFKVSPNLFTVPIKEAGEDCHAPTYLPAEVDGDVKLSSNLVILPGQDLQYVLATYDTSRVEHAVVYYVYSPSRSFSYFYPFRLPIKGVPIELQVECFTWDKKLWCRHFCVLADSESGGHITHSGMVGMGVSCTVTREDGTNRR
In assay [1], B1 gave a Ka of 739000 M⁻¹ and a dissociation constant (Kd) of 1.35 µM. In assay [2], this molecule gave a Ka of 1.48e+06 M⁻¹ and an equilibrium dissociation constant (Kd) of 0.674 µM.
